Key:
[1] = molecular target: T1, human c-Met, membrane-bound on cells (human, UniProt P08581 25-1390); experiment: flow cytometry on A431 cells
T1 construct: whole, on cells; A431 cells carry on average 30,000 copies of c-Met per cell (Qifi); also called c-Met expressed on A431 cells; c-Met on A549 cells
Experimental: (§1) The binding of anti-c-Met antibodies and monovalent forms thereof (also termed “UniBody molecules” herein, see Example 5) to A431 cells expressing membrane-bound c-Met (purchased at ATCC, CRL-1555) was tested using flow cytometry (FACS Canto II, BD Biosciences). […] Binding of anti-c-Met antibodies and UniBody molecules was detected using a Phycoerythrin-conjugated goat-anti-human IgG antibody (Jackson). IgG1-5D5 was used as positive control antibody, and HuMab-KLH was used as isotype control antibody. EC₅₀ values were determined by means of non-linear regression (sigmoidal dose-response with variable slope) using GraphPad Prism V4.03 software (GraphPad Software, San Diego, Calif., USA).
(§2) Also maximum binding levels were unchanged between IgG1's and UniBody molecules. For antibodies 005, 006, 008, 035, 045 and 058, on the other hand, a more than 2-fold […] as well as a decrease in maximum binding level was observed when comparing IgG1 with their UniBody counterpart. This was most likely due to the […] (Kd) of these antibodies (see Example 14).

[2] = molecular target: T1, human c-Met, membrane-bound on cells; experiment: flow cytometry on A431 cells (PE goat anti-human IgG); top panel
Experimental: as §1, §2

[3] = molecular target: T2, recombinant human c-Met extracellular domain (R&D systems) (human, UniProt P08581 25-932); experiment: competition ELISA on coated recombinant c-Met extracellular domain; blocked ligand Europium-conjugated HGF; column headed EC50 on the sheet, called IC50 in paragraph 270; lower panel
T2 construct: extracellular domain; Bought reagent; also called coated extracellular domain of c-Met; recombinant c-Met
Experimental: (§3) ELISA wells were coated overnight at 4° C. with 0.5 μg/mL recombinant human c-Met extracellular domain (R&D systems, Minneapolis, USA) diluted in PBS. Next, the ELISA wells were washed with PBST (PBS supplemented with 0.05% Tween-20 [Sigma-Aldrich, Zwijndrecht, The Netherlands]) and blocked for one hour at room temperature (RT) with PBST supplemented with 2% (v/v) chicken serum (Gibco, Paisley, Scotland). […] Mean fluorescence intensity at 615 nm was measured using the EnVision 2101 Multilabel reader (PerkinElmer) applying the following settings: Lance/Delfia dual mirror, emission filter 615, excitation filter 340 nm, delay time 400 μs, window 400 μs, 100 flashes, 2000 μs per cycle and bidirectional row-by-row reading. To determine IC₅₀ values, the binding curves were analyzed with non-linear regression (sigmoidal dose-response with variable slope, top-values constrained to a shared value for all data-sets) using GraphPad Prism V4.03 software (GraphPad Software, San Diego, Calif., USA).
(§4) FIG. 5 depicts representative examples of HGF binding inhibition curves of anti-c-Met antibodies for binding to the extracellular domain of recombinant human c-Met. 5D5 was used as positive control antibody. All anti-c-Met antibodies in the experiment shown were able to compete with Europium^{3±}-conjugated HGF for binding to recombinant c-Met. […] Without adding Europium³⁺-conjugated HGF, roughly ˜600 relative fluorescent units (RFU) were detected, indicating the signal when maximal inhibition is accomplished. When binding of Europium³⁺-conjugated HGF was not inhibited, approximately ˜66,000 RFU were detected.

[4] = molecular target: T2, recombinant human c-Met extracellular …; experiment: competition ELISA, residual Europium-HGF signal at 615 nm at the lower plateau of the fit; sheet prints no competing mAb ~66000, no HGF-Europium ~600; lower panel
Experimental: as §3, §4

[5] = molecular target: T3, cMetECDHis (human, UniProt P08581 25-932, limits assumed, biotinylated in the cross-block ELISA of Example 17); experiment: BLI (Octet); antibody captured, cMetECDHis in solution
T3 construct: Expressed in HEK-293F cells; also called soluble cMetECDHis; biotinylated cMetECDHis
Experimental: Antibody binding to cMetECDHis was analyzed by means of Bio-Layer Interferometry (BLI) technology on the Octet System (Fortebio, Menlo Park, USA). Anti-human IgG coated biosensors (Fc-specific) were used to capture anti-c-Met antibodies according to the procedure recommended by the manufacturer. cMetECDHis derived from HEK293 cells was loaded on top of the immobilized anti-c-Met antibodies by placing the loaded biosensor into a well containing 10 μg/mL cMetECDHis diluted in 10 times diluted kinetics buffer (Fortebio). The difference in reflection of light (AA, nm) of the biosensor surface due to the binding of cMetECDHis was measured in real time during approximately 10 minutes and was used by the Octet software (V4.0, Fortebio) to calculate the association constant (kₐ [1/M×s]). Next, the loaded biosensor was placed into a well containing only kinetics buffer (10 times diluted in PBS) to determine the dissociation constant (kd [1/s]). Kinetics analysis was performed to determine the affinity (KD [M]) using model 1:1 (langmuir). As a positive control, 0.2 μg/mL 5D5 IgG1 produced in HEK293 cells, was used.

[6] = molecular target: T1, human c-Met, membrane-bound on cells; experiment: cell-based or functional assay
[7] = molecular target: T1, human c-Met, membrane-bound on cells; experiment: flow cytometry on A431 cells (PE goat anti-human IgG); second panel
Experimental: as §1, §2

fold change of EC50, UniBody molecule against IgG1 of the identical clone [1] [fold] | EC50 [2] [nM] | EC50 [7] [nM] | Binder | also measured
> 2 | 0.67 | – | Uni-1016-058-TE (other, also called UniBody molecule of antibody 058) VH: EVQLVESGGGLVKPGGSLKLSCAASGFTFSDYYMYWVRQTPEKRLEWVATISDDGSYTYYPDSVKGRFTISRDNAKNNLYLQMSSLKSEDTAMYYCAREGLYYYGSGSYYNQDYWGQGTLVTVSS VL: AIQLTQSPSSLSASVGDRVTITCRASQGLSSALAWYRQKPGKAPKLLIYDASSLESGVPSRFSGSGSGTDFTLTISSLQPEDFATYYCQQFTSYPQITFGQGTRLEIK | –
– | 0.276 | – | IgG4-058 (antibody, V domains shown, IgG4 format of clone 058; also called IgG4-1016-058) VH: EVQLVESGGGLVKPGGSLKLSCAASGFTFSDYYMYWVRQTPEKRLEWVATISDDGSYTYYPDSVKGRFTISRDNAKNNLYLQMSSLKSEDTAMYYCAREGLYYYGSGSYYNQDYWGQGTLVTVSS VL: AIQLTQSPSSLSASVGDRVTITCRASQGLSSALAWYRQKPGKAPKLLIYDASSLESGVPSRFSGSGSGTDFTLTISSLQPEDFATYYCQQFTSYPQITFGQGTRLEIK | –
– | – | – | anti-c-Met HuMab 096 (IgG1) (antibody, V domains shown, also called TH1016-096; PC1016-096) VH: EVQLVQSGAEVKKPGESLKISCKGSGYSFTSYWIGWVRQMPGKGLEWMGIIYPGDSDTRYSPSFQGQVTISADKSISTAYLQWSSLKASDTAMYYCARQEITGDFDYWGQGTLVTVSS VL: AIQLTQSPSSLSASVGDRVTITCRASQGISSALAWYQQKPGKAPNLLIYAASSLESGVPSRFSGSGSGTDFTLTISSLQPEDFATYYCQQFNSYPLTFGGGTKVEIK | IC50 [3]: 0.0152 µg/mL; Bottom [4]: 24800 RFU; Kd [5]: 2.55 nM; koff [5]: 0.0005 s⁻¹; kon [5]: 196000 M⁻¹ s⁻¹
< 2 | – | 1.66 | Uni-1016-022-TE (other, also called UniBody molecule of antibody 022) VH: QVQLVESGGGVVQPGRSLRLSCAASGFTFSSYAMHWVRQAPGKGLEWVAVISYDGSNKYYADSVKGRFTISRDNSKNTLYLQMNSLRAEDTAVYYCARELLWFGELWGYFDLWGRGTLVTVSS VL: DIQMTQSPSSVSASVGDRVTITCRASQGISSWLAWYQHKPGKAPKLLIYAASSLQSGVPSRFSGSGSGTDFTLTISSLQPEDFATYYCQEASSFTWTFGQGTKVEIK | percentage inhibition of viable KP4 cells (Alamarblue) [6]: 57%
> 2 | 0.323 | 13.9 | Uni-1016-006 (other, also called UniBody molecule of antibody 006) VH: QVQLVQSGAEVKKPGSSVKVSCKASGGTFSSFGIGWVRQAPGQGLEWMGRIFPILGTANYAQMFQGRVTITADKSTSTAYMELTSLRSEDTAVYYCARDVGYDSADAFDIWGQGTMVTVSS VL: DIQMTQSPSSLSASVGDRVTITCRASQGISSWLAWYQQKPEKAPKSLIYAASSLQSGVPSRFSGSGSGTDFTLTISSLQPEDFATYYCQQYNSYPPTFGQGTKVEIK | –

— patent US20150329642A1 (Genmab, published 2015)
